Broadly, the kon is the rate constant with which the complex forms. Lower therefore signals slow association.

Among the data in patent US20180362628A1 (KYMAB, published 2018) are kon values, retold here.

First the molecules themselves.
B1: CL-141799 (antibody, V domains shown)
VH: QVQLVQSGAEVKKPGASVKVSCKASGFTFTDYAMHWVRQAPGQRLEWMGWINAGNGYTKYSQKFQDRLTITRDTFASTVYMELSSLRSEDTTVYYCARDGFCPSNTCSGYYGMDVWGQGTTVTVSS
VL: QSALTQPASVSGSPGQSITISCTGTSSDVGAYKYVSWYQQHPGKAPKLMIYDVNTRPSGVSTRFSASKSGNTASLTVSGLQAEDEAVYYCSSYAGSSTWVFGGGTKLTVL
notes: human IgG1, HEK (Expi293F) culture supernatant
B2: CL-141766 (antibody, V domains shown)
VH: QVQLVQSGAEVKKPGASVKVSCKASGYTFTSYAMHWVRQAPGQRLEWMGWINAGNGNTKYSQKFQGGVTITRDTSASTAYMELSSLRSEDTAVYYCARDNYYDSGSYYDYYYYGMDVWGQGTTVTVSS
VL: QSALTQPASVSGSPGQSITFSCTGTSSDVGSYNHVSWYQQHPGKAPKLMIYDVSKRPSGVSNRFSGSKSGNTASLTISGLQAEDEADYYCCSYAGSSTWVFGGGTKLTVL
notes: as for B1
B3: CL-141785 (antibody, V domains shown)
VH: QVQLVQSGAEVKKPGASVRVSCKASGFTFISYAMHWVRQAPGQGLEWMGWINAGDGHTKYSQKFQDRVAITRDTSATTVYMDLSSLRSEDTAVYYCSRDGFCTTTTCSDHYGMDVWGQGTTVTVSS
VL: B2 VL with F20I, H34Y, L48F, N62D
notes: as for B1
B4: CL-141805 (antibody, V domains shown)
VH: B2 VH with S31N, K63N, G67R, N100E, D103A, S127T
VL: B2 VL with F20I, S31V, H34Y, Y38F, D52N, K106N
notes: as for B1
B5: CL-141802 (antibody, V domains shown)
VH: QVQLVQSGTEVKKPGASVKVSCKASGFTFSSYAMHWVRQAPGQRLEWMGWINAGNGNTKYSQKFQGRVTITRDTSASTAYMELSSLRSEDTAVYYCARDGYCSSTSCYGYYGMDVWGQGTTVTVSS
VL: B2 VL with F20I, S31A, H34Y, Y51S, G70D, I77V, D87V
notes: as for B1
B6: CL-141791 (antibody, V domains shown)
VH: QVQLVQSGAEVKKPGASVKVSCRASGYTFTNYAMHWVRQAPGQRLEWMGWINAGNGYTKYSQKFQDRVTITRDTSATTAHMELSSLRSEDTAMYYCARDSFYDILTGPVYHYYGMDVWGQGTTVTVSS
VL: B2 VL with A8D, F20I, S27N, S31V, A94V, T98A, K106N
notes: as for B1
B7: CL-141806 (antibody, V domains shown)
VH: QVQLVQSGAEVKKPGASVKVSCKASGYTFTNYAIHWVRQAPGQRLEWMGWINAGNGNTKYSQKFQGRVTITRDTSASTAYMELSSLRSEDTAVYYCARDNFYGSGTYFSYFFYHMDVWGQGTTVTVSS
VL: B2 VL with F20I, V60M, N62D
notes: as for B1
B8: CL-141792 (antibody, V domains shown)
VH: QVQLVQSGAEVKKPGASVKVSCKASGYTFTSYAMHWVRQAPGQRLEWMGWINAGNGYTKYSQNFQGRVTITRDTSASTAYMELSSLRSEDTAVYYCARDNYFDSSVYDSSYYFYYGMDVWGQGTTVTVSS
VL: B2 VL with F20I
notes: as for B1
B9: CL-141772 (antibody, V domains shown)
VH: QVQLVQSGAEVKKPGASVKVSCKASGFIFINYAMQWVRQAPGQRLEWMGWINAGNGYTKYSQKFQGRVTITRDISANTVYMELSSLRSEDTAVYYCARDGFCSTTTCSDHYGMDVWGQGTTVTVSS
VL: B2 VL with F20I, S31G, H34Y, N62D, A82T
notes: as for B1
B10: CL-141769 (antibody, V domains shown)
VH: B6 VH with V68F, H80Y, M93V
VL: B2 VL with A8D, F20I, S27N, S31V, A86S
notes: as for B1
B11: CL-141781 (antibody, V domains shown)
VH: B6 VH with T30S, H80Y, A97S
VL: B2 VL with A8D, F20I, S27N, S31V, A94V, S96N, T98A
notes: as for B1
B12: CL-141776 (antibody, V domains shown)
VH: B3 VH with K13N, R19K, I30T, S31N, G44R, D55N, V79A, D82E, T103S
VL: B2 VL with F20I, S31G, H34Y, L48F
notes: as for B1

Residue numbers refer to the chain shown, from its start.

In this test the target is T1, full CSP protein (analyte of Example 12) (Plasmodium falciparum (isolate 3D7), UniProt Q7K740 19-374).
T1 construct: not shown: C-terminal tags
T1 sequence (Q7K740 19-374 limits assumed): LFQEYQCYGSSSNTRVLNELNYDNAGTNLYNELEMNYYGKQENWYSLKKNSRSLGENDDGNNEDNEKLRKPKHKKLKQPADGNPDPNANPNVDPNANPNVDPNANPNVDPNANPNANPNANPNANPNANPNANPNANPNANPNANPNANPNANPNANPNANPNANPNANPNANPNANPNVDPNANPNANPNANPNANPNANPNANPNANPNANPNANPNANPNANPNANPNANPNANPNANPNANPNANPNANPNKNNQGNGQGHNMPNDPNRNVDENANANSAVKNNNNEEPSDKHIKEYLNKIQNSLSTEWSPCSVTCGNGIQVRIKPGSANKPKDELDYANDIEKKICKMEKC
Kind of test: SPR, IgG1 from supernatant on anti-human IgG surface, CSP as analyte, 25 C, 1:1 fit.
Take B1: the kon was 486000 M⁻¹ s⁻¹.

In turn, B2 showed an association rate constant (kon) of 528000 M⁻¹ s⁻¹.

B3 showed an on-rate (kon) of 573000 M⁻¹ s⁻¹.

Molecule B4 displayed an on-rate constant (kon) of 1.19e+06 M⁻¹ s⁻¹.

B5 registered a kon of 313000 M⁻¹ s⁻¹.

Turning to B6, the kon came out at 253000 M⁻¹ s⁻¹.

Molecule B7 returned a kon of 284000 M⁻¹ s⁻¹.

The molecule B8 yielded a kon of 51300 M⁻¹ s⁻¹. This kon lies about 5.5-fold lower than the previous one.

For B9, the kon worked out at 338000 M⁻¹ s⁻¹.

Molecule B10 showed a kon of 156000 M⁻¹ s⁻¹.

In turn, B11 showed an association rate constant (kon) of 221000 M⁻¹ s⁻¹.

For B12, the kon turned out to be 143000 M⁻¹ s⁻¹.
